How the values were obtained:
[1] = molecular target: TRBC1 polypeptide (form not stated, target of the affinity printed for scFv C1) (UniProt P01850 1-149, limits assumed); test: not stated; column head 'Affinity' in the table of scFv sequences
[2] = molecular target: T1, TRBC2 (T cell receptor β chain constant region 2) on HPB-ALL cells (human, UniProt A0A5B9 1-178); test: flow cytometry on HPB-ALL cells (express TRBC2)
T1 construct: whole, on cells; This is the constant region of the TCR β chain carried by the cell's own rearranged TCR; also called TRBC2 polypeptide

[3] = molecular target: T2, TRBC1 (T cell receptor β chain constant region 1) on Jurkat cells and TRBC1^+ healthy human T cells (human, UniProt P01850 1-176); test: flow cytometry on Jurkat cells and healthy human T cells
T2 construct: whole, on cells; This is the constant region of the TCR β chain carried by the cell's own rearranged TCR; The rest of the TCR is not specified; also called TRBC1 polypeptide

[4] = molecular target: CD3 polypeptide (form not stated, target of the affinity printed for scFv UCHT1.v9) (UniProt P07766 23-126); test: not stated; column head 'Affinity' in the table of scFv sequences
Sequence of CD3 polypeptide (form not stated, target of the affinity printed for scFv UCHT1.v9) (P07766 23-126): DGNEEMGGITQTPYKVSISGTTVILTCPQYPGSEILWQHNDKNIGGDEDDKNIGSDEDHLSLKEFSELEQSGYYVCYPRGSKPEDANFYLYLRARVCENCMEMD

T1 sequence (A0A5B9 whole entry): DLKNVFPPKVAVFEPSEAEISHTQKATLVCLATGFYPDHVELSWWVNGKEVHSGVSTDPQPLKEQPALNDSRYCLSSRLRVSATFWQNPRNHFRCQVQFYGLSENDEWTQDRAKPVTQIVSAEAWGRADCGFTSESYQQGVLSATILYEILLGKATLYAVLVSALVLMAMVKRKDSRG
Sequence of TRBC1 polypeptide (form not stated, target of the affinity printed for scFv C1) (P01850 1-149 limits assumed): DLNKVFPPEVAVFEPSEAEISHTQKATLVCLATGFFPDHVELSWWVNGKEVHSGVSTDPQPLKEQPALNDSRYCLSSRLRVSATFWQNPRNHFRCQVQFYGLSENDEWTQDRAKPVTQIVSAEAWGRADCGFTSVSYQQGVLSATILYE
T2 sequence (P01850 whole entry): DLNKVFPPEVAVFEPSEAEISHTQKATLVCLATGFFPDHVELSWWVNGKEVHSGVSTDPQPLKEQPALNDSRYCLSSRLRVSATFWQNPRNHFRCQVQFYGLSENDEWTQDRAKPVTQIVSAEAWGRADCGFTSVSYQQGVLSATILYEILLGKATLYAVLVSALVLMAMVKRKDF

B1: anti-TRBC1 scFv C1 (Jovi-1) (scFv, V domains shown)
VH: EVRLQQSGPDLIKPGASVKMSCKASGYTFTGYVMHWVKQRPGQGLEWIGFINPYNDDIQSNERFRGKATLTSDKSSTTAYMELSSLTSEDSAVYYCARGAGYNFDGAYRFFDFWGQGTTLTVSS
VL: DVVMTQSPLSLPVSLGDQASISCRSSQRLVHSNGNTYLHWYLQKPGQSPKLLIYRVSNRFPGVPDRFSGSGSGTDFTLKISRVEAEDLGIYFCSQSTHVPYTFGGGTKLEIKR
notes: also called αTRBC1 scFv
In the case of B1, the Kd [1] is reported as 0.4 nM.

B2: TRBC1-TRBC1 #3 bispecific antibody (bispecific antibody, V domains shown)
VH: B1 VH
VL: B1 VL
notes: A single polypeptide made by linking two anti-TRBC1 scFvs, with G4S and (G4S)3 linkers and a poly-histidine tail; also called anti-C1 #3
B2: no binding [2].

B3: TRBC1-TRBC1 #4 bispecific antibody (bispecific antibody, V domains shown)
VH: B1 VH
VL: B1 VL
notes: A single polypeptide made by linking two anti-TRBC1 scFvs, with G4S and (G4S)3 linkers and a poly-histidine tail; also called anti-C1 #4
B3: no binding [2].

B4: TRBC1-CD3 bispecific antibody (bispecific antibody, V domains shown)
VL 1: B1 VL
VH 1: B1 VH
VL 2: DIQMTQSPSSLSASVGDRVTITCRASQDIRNYLNWYQQKPGKAPKLLIYYTSRLESGVPSRFSGSGSGTDYTLTISSLQPEDFATYYCQQGNTLPWTFGQGTKVEIK
VH 2: EVQLVESGGGLVQPGGSLRLSCAASGYSFTGYTMNWVRQAPGKGLEWVALINPYKGVSTYNQKFKDRFTISVDKSKNTAYLQMNSLRAEDTAVYYCARSGYYGDSDWYFDVWGQGTLVTVSS
notes: It was nickel purified, so a His tag is implied; also called αC1-CD3; anti-C1-CD3
B4: binds [3].

B5: anti-CD3 scFv UCHT1.v9 (scFv, V domains shown)
VH: B4 VH 2
VL: B4 VL 2
notes: also called αCD3 scFv
Work on B5 yielded a Kd [4] of 4.7 nM.
